Here are results for 3 molecules from paper PMC12685370, “Loop-mediated regulation and base flipping drive RNA cleavage by human mitochondrial PNPase” (Nucleic Acids Research, 2025).

For data set [1], the target named is T1, hPNPase (human polynucleotide phosphorylase), hPNPase-TS (Homo sapiens, UniProt Q8TCS8).
T1 construct: gene PNPT1; residues 46-783, mitochondrial targeting signal removed, C-terminal Twin-Strep-tag kept, expressed in MEXi-293E cells, homotrimer
T1 sequence (Q8TCS8 46-783): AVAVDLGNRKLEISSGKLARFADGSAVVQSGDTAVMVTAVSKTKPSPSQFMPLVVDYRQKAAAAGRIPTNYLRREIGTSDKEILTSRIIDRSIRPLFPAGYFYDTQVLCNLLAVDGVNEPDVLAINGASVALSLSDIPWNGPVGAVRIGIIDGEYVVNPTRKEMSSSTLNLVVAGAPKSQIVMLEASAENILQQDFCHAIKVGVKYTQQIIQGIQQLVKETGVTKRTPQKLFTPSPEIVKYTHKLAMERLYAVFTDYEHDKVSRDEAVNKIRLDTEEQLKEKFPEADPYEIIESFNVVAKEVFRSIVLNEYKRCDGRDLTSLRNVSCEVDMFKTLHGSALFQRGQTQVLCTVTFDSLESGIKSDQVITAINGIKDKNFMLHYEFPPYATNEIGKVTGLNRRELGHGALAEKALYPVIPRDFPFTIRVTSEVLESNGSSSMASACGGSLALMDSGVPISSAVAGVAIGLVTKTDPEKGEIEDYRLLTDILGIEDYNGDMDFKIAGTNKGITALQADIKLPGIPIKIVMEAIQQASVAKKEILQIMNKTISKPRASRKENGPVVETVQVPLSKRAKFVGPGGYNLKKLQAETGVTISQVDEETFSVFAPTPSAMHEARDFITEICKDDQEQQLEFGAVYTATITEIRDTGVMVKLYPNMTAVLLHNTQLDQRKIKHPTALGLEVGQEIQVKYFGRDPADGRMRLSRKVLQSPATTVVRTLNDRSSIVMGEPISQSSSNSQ
The data set can be described thus: cryo-EM structure. Type of data set: binding. The settings on record: 2 mM NaH2PO4, 2 mM MgCl2, pH 8.0; active site of PH2 domain (S482-484, H450, R446), no RNA; co-substrate of phosphorolysis; also in 9NO0 with PT5 RNA.

Data set [2] deals with T2, hPNPase (human mitochondrial polynucleotide phosphorylase) (Homo sapiens, UniProt Q8TCS8 46-783).
T2 sequence: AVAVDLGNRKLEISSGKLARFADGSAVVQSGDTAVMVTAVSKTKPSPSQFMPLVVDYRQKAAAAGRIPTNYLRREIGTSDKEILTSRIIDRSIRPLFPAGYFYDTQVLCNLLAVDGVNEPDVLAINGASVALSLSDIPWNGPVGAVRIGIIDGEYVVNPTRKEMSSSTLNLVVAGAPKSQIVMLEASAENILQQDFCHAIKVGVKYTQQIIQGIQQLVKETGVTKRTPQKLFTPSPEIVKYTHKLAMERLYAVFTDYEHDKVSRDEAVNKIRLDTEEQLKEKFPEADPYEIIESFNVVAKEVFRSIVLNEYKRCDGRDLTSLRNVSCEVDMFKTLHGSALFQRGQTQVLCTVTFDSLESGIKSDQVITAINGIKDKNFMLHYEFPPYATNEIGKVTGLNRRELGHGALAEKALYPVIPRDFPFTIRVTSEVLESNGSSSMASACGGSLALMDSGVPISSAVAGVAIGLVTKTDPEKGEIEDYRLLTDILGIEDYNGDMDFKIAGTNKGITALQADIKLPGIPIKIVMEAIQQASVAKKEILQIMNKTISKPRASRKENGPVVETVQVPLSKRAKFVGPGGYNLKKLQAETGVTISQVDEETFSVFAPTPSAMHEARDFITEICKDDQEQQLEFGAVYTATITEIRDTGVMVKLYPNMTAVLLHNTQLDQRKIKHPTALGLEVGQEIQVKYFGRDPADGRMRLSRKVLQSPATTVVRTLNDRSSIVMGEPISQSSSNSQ
In words: cryo-EM structure; sulfate in place of phosphate, Mg2+; pre-catalytic state, 2.2 A, 6 nt modelled; Protein SEC buffer: 20 mM HEPES-NaOH pH 8.0, 150 mM NaCl, 1 mM MgCl2, 1 mM DTT, 1% glycerol; competition as in RNA degradation assay (conditions not in material); sulfate 2 mM in the assay replacing phosphate. To be noted: protein: recombinant; tags: C-terminal Twin-Strep-tag; chain copies: 3; label: 5'-FAM; single strand.

Data set [3] concerns the molecule itself. In words: cryo-EM structure; single-particle cryo-EM of 1.5 uM hPNPase-TS in RNA degradation buffer (10 mM HEPES pH 8.0, 50 mM NaCl, 2 mM MgCl2, 2 mM DTT, 2 mM NaH2PO4); apo (with Pi), RNA loading state (PT5 RNA) and pre-catalytic state (10 mM Na2SO4, 0.1 mM NaH2PO4, RNA); refined in C1.

As to `O=P(O)(O)O` [Pi, phosphate], the cryo-EM structure result in data set [1] is “The phosphate ion is present in each protomer and coordinated by S482-484, H450, and R446”.

B1: FAM_PNP_RNA_long (ssRNA)
RNA: CACAACACACACCACACACACAUAAAACAAAACAGCUACGCCAUCCUCCCCCCAAUCUA
Turning to B1, the binding result in data set [2] is recorded as “binds”.

B2: human polynucleotide phosphorylase (hPNPase), amino acids 46-783, with C-terminal Twin-Strep-tag (enzyme, UniProt Q8TCS8 46-783, looked up)
chain: AVAVDLGNRKLEISSGKLARFADGSAVVQSGDTAVMVTAVSKTKPSPSQFMPLVVDYRQKAAAAGRIPTNYLRREIGTSDKEILTSRIIDRSIRPLFPAGYFYDTQVLCNLLAVDGVNEPDVLAINGASVALSLSDIPWNGPVGAVRIGIIDGEYVVNPTRKEMSSSTLNLVVAGAPKSQIVMLEASAENILQQDFCHAIKVGVKYTQQIIQGIQQLVKETGVTKRTPQKLFTPSPEIVKYTHKLAMERLYAVFTDYEHDKVSRDEAVNKIRLDTEEQLKEKFPEADPYEIIESFNVVAKEVFRSIVLNEYKRCDGRDLTSLRNVSCEVDMFKTLHGSALFQRGQTQVLCTVTFDSLESGIKSDQVITAINGIKDKNFMLHYEFPPYATNEIGKVTGLNRRELGHGALAEKALYPVIPRDFPFTIRVTSEVLESNGSSSMASACGGSLALMDSGVPISSAVAGVAIGLVTKTDPEKGEIEDYRLLTDILGIEDYNGDMDFKIAGTNKGITALQADIKLPGIPIKIVMEAIQQASVAKKEILQIMNKTISKPRASRKENGPVVETVQVPLSKRAKFVGPGGYNLKKLQAETGVTISQVDEETFSVFAPTPSAMHEARDFITEICKDDQEQQLEFGAVYTATITEIRDTGVMVKLYPNMTAVLLHNTQLDQRKIKHPTALGLEVGQEIQVKYFGRDPADGRMRLSRKVLQSPATTVVRTLNDRSSIVMGEPISQSSSNSQ
notes: human polynucleotide phosphorylase (hPNPase), amino acids 46-783, without the N-terminal mitochondrial targeting signal; gene codon optimized for human cell lines; S1 domain not modelled in the structures; Cloned into the vector pDSG103 (IBA); Homotrimer in all cryo-EM reconstructions; also called hPNPase-TS; human mitochondrial PNPase; source: MEXi-293E cells, transfected, purified …
The term stoichiometry N denotes the number of molecules, sites or subunits per partner or assembly. As to B2, the “stoichiometry N” value in data set [3] worked out at 3.
